Experimental data reported in patent US8309097 (VERENIGING VOOR CHRISTELIJK WETENSCHAPPELIJK ONDERWIJS, dated 2012).
Changes are numbered by the printed parent chain. Numbers in names are those of the source. Where two headings read alike, the source gives them in different places.

What was measured:
ICAM-3 from granulocytes = target: T1, ICAM-3 from granulocytes (UniProt P32942 30-547); assay: ELISA: ICAM-3 captured from granulocyte lysate by coated antibody, DC-SIGN-Fc added (FIG. 22C)
T1 construct: also called ICAM-3 captured or immunoprecipitated from granulocyte lysate
T1 sequence (looked up): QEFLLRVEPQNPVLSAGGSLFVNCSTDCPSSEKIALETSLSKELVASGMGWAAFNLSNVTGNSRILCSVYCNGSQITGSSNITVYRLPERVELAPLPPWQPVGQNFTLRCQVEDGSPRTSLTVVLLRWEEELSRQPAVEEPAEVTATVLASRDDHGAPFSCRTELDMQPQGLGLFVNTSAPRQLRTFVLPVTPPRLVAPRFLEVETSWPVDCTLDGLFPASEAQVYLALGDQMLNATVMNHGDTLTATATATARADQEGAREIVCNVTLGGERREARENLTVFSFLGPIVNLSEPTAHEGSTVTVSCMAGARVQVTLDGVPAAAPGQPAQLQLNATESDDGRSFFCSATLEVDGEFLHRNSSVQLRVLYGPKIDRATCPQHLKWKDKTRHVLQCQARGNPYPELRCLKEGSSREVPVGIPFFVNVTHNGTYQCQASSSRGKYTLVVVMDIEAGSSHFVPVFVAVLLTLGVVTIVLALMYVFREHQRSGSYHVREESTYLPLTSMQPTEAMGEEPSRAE

[1] = target: T2, ICAM-3 coated on fluorescent beads (UniProt P32942 30-485)
T2 sequence: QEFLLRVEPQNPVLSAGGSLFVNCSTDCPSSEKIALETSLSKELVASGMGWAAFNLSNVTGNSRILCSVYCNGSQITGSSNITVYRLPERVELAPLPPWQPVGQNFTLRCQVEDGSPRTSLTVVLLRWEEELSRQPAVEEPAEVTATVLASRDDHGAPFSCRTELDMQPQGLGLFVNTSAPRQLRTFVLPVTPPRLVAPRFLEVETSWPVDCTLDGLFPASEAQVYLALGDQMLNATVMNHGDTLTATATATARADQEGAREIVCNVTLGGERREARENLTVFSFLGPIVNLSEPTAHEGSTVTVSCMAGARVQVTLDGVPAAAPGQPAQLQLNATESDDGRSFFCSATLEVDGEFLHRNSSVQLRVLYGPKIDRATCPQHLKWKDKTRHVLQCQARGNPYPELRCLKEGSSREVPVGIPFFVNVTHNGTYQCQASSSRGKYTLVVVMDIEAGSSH

ICAM-3-Fc = target: T3, ICAM-3-Fc (UniProt P32942 30-485); assay: beads coated with ICAM-3-Fc, immature DC and K562-DC-SIGN
T3 construct: also called pIG-ICAM-3-Fc product; Fc chimera of ICAM-3
T3 sequence (looked up): T2 sequence

[2] = target: T2, ICAM-3 coated on fluorescent beads; assay: fluorescent bead adhesion assay, K562 transfectants

B1: DC-SIGN-Fc (Fc fusion, human, UniProt Q9NNX6 64-404, looked up, not shown: a dimerising Fc or GST)
chain: PSSISQEQSRQDAIYQNLTQLKAAVGELSEKSKLQEIYQELTQLKAAVGELPEKSKLQEIYQELTRLKAAVGELPEKSKLQEIYQELTWLKAAVGELPEKSKMQEIYQELTRLKAAVGELPEKSKQQEIYQELTRLKAAVGELPEKSKQQEIYQELTRLKAAVGELPEKSKQQEIYQELTQLKAAVERLCHPCPWEWTFFQGNCYFMSNSQRNWHDSITACKEVGAQLVVIKSAEEQNFLQLQSSRSNRFTWMGLSDLNQEGTWQWVDGSPLLPSFKQYWNRGEPNNVGEEDCAEFSGNGWNDDKCNLAKFWICKKSAASCSRDEEQFLSPAPATPNPPPA
notes: range 64-404; also called soluble DC-SIGN-Fc; DC-SIGN-Fe
binding result (ICAM-3 from granulocytes): no binding

B2: DC-SIGN (CD209), wild type, expressed on K562 transfectants or immature dendritic cells (receptor, human, UniProt Q9NNX6 1-404, looked up)
chain: MSDSKEPRLQQLGLLEEEQLRGLGFRQTRGYKSLAGCLGHGPLVLQLLSFTLLAGLLVQVSKVPSSISQEQSRQDAIYQNLTQLKAAVGELSEKSKLQEIYQELTQLKAAVGELPEKSKLQEIYQELTRLKAAVGELPEKSKLQEIYQELTWLKAAVGELPEKSKMQEIYQELTRLKAAVGELPEKSKQQEIYQELTRLKAAVGELPEKSKQQEIYQELTRLKAAVGELPEKSKQQEIYQELTQLKAAVERLCHPCPWEWTFFQGNCYFMSNSQRNWHDSITACKEVGAQLVVIKSAEEQNFLQLQSSRSNRFTWMGLSDLNQEGTWQWVDGSPLLPSFKQYWNRGEPNNVGEEDCAEFSGNGWNDDKCNLAKFWICKKSAASCSRDEEQFLSPAPATPNPPPA
notes: whole, on cells; also called cellular DC-SIGN; K562-DC-SIGN
binding result [1]: binds
binding result (ICAM-3-Fc): binds

B3: DC-SIGN E347Q mutant expressed by K562 cells (receptor)
chain: B2 chain with E347Q
notes: whole, on cells
binding result [2]: no binding
